For one molecule, binding result and half-life of endocytosis results are on record in US20150037356A1 (AstraZeneca / MedImmune, published 2015).

For one assay, the target named is T1, CD33 on U937 cells (UniProt P20138 18-364, limits assumed).
T1 construct: whole, on cells
As to the kind of experiment: FACS on U937 cells.

The next assay addresses T2, Siglec-5 on U937 cells (UniProt O15389 17-551, limits assumed).
T2 construct: whole, on cells
T2 sequence (looked up): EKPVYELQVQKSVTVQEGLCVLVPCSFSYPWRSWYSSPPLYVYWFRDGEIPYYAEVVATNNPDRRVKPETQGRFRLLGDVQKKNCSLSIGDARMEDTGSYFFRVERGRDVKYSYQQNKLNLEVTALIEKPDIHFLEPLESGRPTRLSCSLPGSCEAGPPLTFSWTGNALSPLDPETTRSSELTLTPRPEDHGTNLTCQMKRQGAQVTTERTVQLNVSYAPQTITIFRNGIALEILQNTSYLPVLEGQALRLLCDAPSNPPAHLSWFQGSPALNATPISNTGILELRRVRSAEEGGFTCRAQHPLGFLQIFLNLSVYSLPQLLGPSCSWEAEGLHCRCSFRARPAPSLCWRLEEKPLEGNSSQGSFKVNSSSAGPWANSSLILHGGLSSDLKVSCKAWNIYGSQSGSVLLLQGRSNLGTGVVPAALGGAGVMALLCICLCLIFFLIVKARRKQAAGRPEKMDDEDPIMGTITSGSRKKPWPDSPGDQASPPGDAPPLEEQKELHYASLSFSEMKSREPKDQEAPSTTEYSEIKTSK
As to the kind of experiment: FACS on U937 cells.

The next assay deals with T3, Siglec-9 on U937 cells (UniProt Q9Y336 18-463, limits assumed).
T3 construct: whole, on cells
Briefly: FACS on U937 cells.

Assay [1] deals with T4, endogenous Siglec-15 on leukaemic cell lines (human, UniProt Q6ZMC9 20-328).
T4 sequence (looked up): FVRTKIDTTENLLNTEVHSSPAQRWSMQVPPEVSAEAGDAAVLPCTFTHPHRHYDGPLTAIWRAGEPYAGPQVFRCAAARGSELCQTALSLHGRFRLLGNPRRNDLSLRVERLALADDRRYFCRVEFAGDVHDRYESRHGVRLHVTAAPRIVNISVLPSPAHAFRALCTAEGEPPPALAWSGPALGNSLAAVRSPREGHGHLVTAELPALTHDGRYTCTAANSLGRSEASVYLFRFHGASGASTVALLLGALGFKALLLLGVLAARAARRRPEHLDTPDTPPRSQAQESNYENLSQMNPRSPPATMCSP
As to the kind of experiment: cell-based or functional assay.

T3 sequence (Q9Y336 18-463 limits assumed): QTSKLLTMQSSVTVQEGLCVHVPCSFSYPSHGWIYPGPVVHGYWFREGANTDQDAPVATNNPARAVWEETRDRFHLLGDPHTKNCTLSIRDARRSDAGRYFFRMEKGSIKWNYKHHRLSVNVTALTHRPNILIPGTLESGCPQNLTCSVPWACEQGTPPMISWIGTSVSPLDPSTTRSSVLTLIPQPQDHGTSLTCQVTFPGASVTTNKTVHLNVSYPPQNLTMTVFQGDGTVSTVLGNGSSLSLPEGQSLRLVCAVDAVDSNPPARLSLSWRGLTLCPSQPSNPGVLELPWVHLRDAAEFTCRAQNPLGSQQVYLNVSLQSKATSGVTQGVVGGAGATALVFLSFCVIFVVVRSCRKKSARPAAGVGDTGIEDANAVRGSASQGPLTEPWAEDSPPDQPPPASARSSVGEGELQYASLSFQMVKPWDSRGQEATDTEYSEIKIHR
T1 sequence (P20138 18-364 limits assumed): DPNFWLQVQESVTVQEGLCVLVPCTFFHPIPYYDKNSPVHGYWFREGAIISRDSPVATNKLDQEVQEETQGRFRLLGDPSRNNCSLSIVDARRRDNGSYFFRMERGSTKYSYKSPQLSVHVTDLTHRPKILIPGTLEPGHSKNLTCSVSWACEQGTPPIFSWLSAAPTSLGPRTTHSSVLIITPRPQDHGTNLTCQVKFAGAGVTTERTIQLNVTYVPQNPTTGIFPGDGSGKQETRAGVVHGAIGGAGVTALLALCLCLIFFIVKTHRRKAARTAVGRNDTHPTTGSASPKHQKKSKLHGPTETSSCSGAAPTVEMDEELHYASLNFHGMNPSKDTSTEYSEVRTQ

B1: A9E8 monoclonal antibody (mouse IgG1 format) (antibody, V domains shown)
VH: QLQLQESGPGLVKPSETLSLTCAVSGASISNWWSWVRQPPGKGLEWIGEVHHSGVTTYKPSLKSRVTISVDNSKNQLSLKLTSVTAADTAVYYCAREFADDAFDIWGRGTMVTVSS
VL: SSELTQDPAVSVALGQTVRITCRGDSLRKYYASWYQQKPRQAPQLVIYHKNNRASGIPDRFSGSISGNTASLTITGAQAEDEAAYFCNSRDTSGNYLVFGGGTKVTVLG
notes: VH and VL from the phage scFv were cloned into a mouse IgG1 backbone and expressed as complete mouse IgG1; also called A9E8 antibody
For the molecule B1, the binding result with CD33 on U937 cells, with Siglec-5 on U937 cells and with Siglec-9 on U937 cells was “no binding” each time. The molecule also registered a half-life of endocytosis in assay [1] of 2.9 min.
